± gives the uncertainty stated by the source.
Assay: self-splicing fitness, log relative to wild type (ln ratio); higher = more splicing; Tetrahymena group I intron in knt gene, E. coli kanamycin selection, DiMSum; sequences stand for … in CUCUCU…GGAGGGAAAAGUUAUCAGGCAUGCACCUGGUAGCUAGUCUUUAAACCAAUAGAUUGCAUCGGUUUAAAAGGCAAGACCGUCAAAUUGCGGGAAAGGGGUCAACAGCCGUUCAGUACCAAGUCUCAGGGGAAACUUUGAGAUGGCCUUGCAAAGGGUAUGGUAAUAAGCUGACGGACAUGGUCCUAACCACGCAGCCAAGUCCUAAGUCAACAGAUCUUCUGUUGAUAUGGAUGCAGUUCACAGACUAAAUGUCGGUCGGGGAAGAUGUAUUCUUCUCAUAAGAUAUAGUCGGACCUCUCCUUAAUGGGAGCUAGCGGAUGAAGUGAUGCAACACUGGAGCCGCUGGGAACUAAUUUGUAUGCGAAAGUAUAUUGAUUAGUUUUGGAGUACUCGUGGUCG
Method in brief: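 Library with all eight P1ex-region intron nucleotides randomised, intron inside the knt kanamycin-resistance gene on pET-22b(+), in E. coli BL21(DE3). Cells grew overnight at 37°C or 30°C on LB agar with or without 25 μg/mL kanamycin (plus 100 μg/mL carbenicillin, 50 μM IPTG, 0.2% rhamnose), in six replicate transformations. Pooled colonies were amplicon-sequenced on Illumina HiSeq 2500. DiMSum fitness is the error-weighted combination of wild-type-normalised replicate fold changes, kanamycin versus none.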

Sequence	self-splicing fitness (ln) (30 °C)	self-splicing fitness (ln) (37 °C)
UGGAAGCAAUAUUACGUGUG	-1.06 ± 0.073	-0.706 ± 0.091
AGAUAGCAAUAUUACGCCGG	-2.14 ± 0.44	–
AAUCAGCAAUAUUACGCGAG	-0.887 ± 0.068	-1.07 ± 0.088
UAGAAGCAAUAUUACGUGGG	-3.09 ± 0.18	-2 ± 0.19
GUGGAGCAAUAUUACGGUUU	-3.22 ± 0.14	-1.65 ± 0.15
UUCCAGCAAUAUUACGGCUG	-3.09 ± 0.2	-2.68 ± 0.25
GUCCAGCAAUAUUACGGCAA	-0.33 ± 0.097	-0.363 ± 0.085
AGCUAGCAAUAUUACGGGGG	-3.05 ± 0.31	-1.64 ± 0.27
UCGAAGCAAUAUUACGUGCU	-3.75 ± 0.18	-3.77 ± 0.31
CCAUAGCAAUAUUACGUUGU	-4.79 ± 0.41	-2.66 ± 0.19
GAGCAGCAAUAUUACGAUAA	-2.23 ± 0.29	-1.76 ± 0.24
GUUAAGCAAUAUUACGUGGA	-2.84 ± 0.15	-2.31 ± 0.15
AUACAGCAAUAUUACGCUUU	-3.04 ± 0.18	-1.64 ± 0.15
AGUAAGCAAUAUUACGUUAC	-3.26 ± 0.24	-2.61 ± 0.27
GUCCAGCAAUAUUACGCCAG	-3.38 ± 0.23	-1.15 ± 0.2
UUAAAGCAAUAUUACGUGGG	-1.65 ± 0.1	-2.03 ± 0.17
GGUCAGCAAUAUUACGUAAA	0.301 ± 0.14	0.672 ± 0.18
UAGCAGCAAUAUUACGACGC	-3.94 ± 0.31	-1.82 ± 0.19
ACUAAGCAAUAUUACGCCCG	-0.735 ± 0.14	0.678 ± 0.19
UUAUAGCAAUAUUACGAACG	-0.792 ± 0.17	-0.293 ± 0.21
UAUAAGCAAUAUUACGCGCG	-0.131 ± 0.11	-0.655 ± 0.14
GUCCAGCAAUAUUACGCGUC	-1.15 ± 0.088	0.346 ± 0.12
GCUUAGCAAUAUUACGUAUA	-1.24 ± 0.072	-1.15 ± 0.094
CUUAAGCAAUAUUACGUAAA	-3.93 ± 0.27	-2.88 ± 0.36
CGAGAGCAAUAUUACGCAGA	-3.36 ± 0.33	-1.94 ± 0.26

Sequence	self-splicing fitness (ln) (30 °C)	self-splicing fitness (ln) (37 °C)
GUAUAGCAAUAUUACGAGUC	-3.65 ± 0.38	-0.711 ± 0.19
UUAAAGCAAUAUUACGGUCA	0.199 ± 0.071	0.479 ± 0.11
AGUAAGCAAUAUUACGUGGA	-3.8 ± 0.4	-3.85 ± 0.39
GUCUAGCAAUAUUACGCCCC	0.281 ± 0.13	-0.182 ± 0.12
CCCAAGCAAUAUUACGACUG	-3.41 ± 0.14	-3.49 ± 0.23
UCUUAGCAAUAUUACGACGA	0.0588 ± 0.29	-1.68 ± 0.22
UUCAAGCAAUAUUACGUCUG	-3.08 ± 0.24	-1.46 ± 0.14
GAGAAGCAAUAUUACGGGCA	-0.782 ± 0.1	-0.441 ± 0.087
AGAUAGCAAUAUUACGUAAA	-2.53 ± 0.17	-1.74 ± 0.14
GAGAAGCAAUAUUACGCUCG	-1.07 ± 0.14	0.735 ± 0.18
GUGUAGCAAUAUUACGUGGC	-1.72 ± 0.18	–
ACUCAGCAAUAUUACGUUAG	-2.98 ± 0.13	-0.675 ± 0.11
ACAGAGCAAUAUUACGUCUU	-1.48 ± 0.18	-1.98 ± 0.18
AGCCAGCAAUAUUACGGAGA	-2.57 ± 0.16	-1.34 ± 0.15
UAACAGCAAUAUUACGAUGA	-1.01 ± 0.078	-0.269 ± 0.088
CGCUAGCAAUAUUACGGAAG	-1.7 ± 0.16	0.348 ± 0.17
UGGCAGCAAUAUUACGUUGC	-3.77 ± 0.19	-2.37 ± 0.13
CUCGAGCAAUAUUACGUGAU	-2.16 ± 0.14	-0.542 ± 0.12
GGUUAGCAAUAUUACGCGAG	-1.9 ± 0.2	-0.416 ± 0.13
UGAUAGCAAUAUUACGCGUU	-2.9 ± 0.24	-2.54 ± 0.39
CACUAGCAAUAUUACGUGAG	-3.33 ± 0.14	-2.91 ± 0.23
ACCGAGCAAUAUUACGGGGG	-3.8 ± 0.18	-3.18 ± 0.2
AGUCAGCAAUAUUACGCUCU	-1.01 ± 0.2	-0.342 ± 0.21
GCUAAGCAAUAUUACGAUUG	-2.78 ± 0.11	-1.17 ± 0.12
CUUAAGCAAUAUUACGCGUA	-2.75 ± 0.34	-3.23 ± 0.29

Sequence	self-splicing fitness (ln) (30 °C)	self-splicing fitness (ln) (37 °C)
CCUCAGCAAUAUUACGUUCA	-2.61 ± 0.16	-2.68 ± 0.3
CUGAAGCAAUAUUACGCAGU	-3.09 ± 0.19	-3.23 ± 0.43
CGCUAGCAAUAUUACGUCUU	–	-0.855 ± 0.16
GCCAAGCAAUAUUACGAAUG	-3.56 ± 0.2	-1.84 ± 0.16
AAGGAGCAAUAUUACGGACG	–	-0.216 ± 0.26
CCACAGCAAUAUUACGAUUU	-4.23 ± 0.19	-3.01 ± 0.17
AACGAGCAAUAUUACGGCGA	-1.95 ± 0.23	-0.978 ± 0.2
AUAUAGCAAUAUUACGACGC	-1.91 ± 0.27	-0.93 ± 0.29
GGGCAGCAAUAUUACGAUCA	-1.56 ± 0.13	-0.598 ± 0.15
CGGAAGCAAUAUUACGGCAU	-3.02 ± 0.34	-1.55 ± 0.3
UGGUAGCAAUAUUACGCAUA	-1.11 ± 0.22	-0.547 ± 0.17
UACUAGCAAUAUUACGACCU	-2.01 ± 0.13	-0.83 ± 0.15
GAUUAGCAAUAUUACGGGUG	-1.52 ± 0.097	-0.58 ± 0.12
GGGGAGCAAUAUUACGGUGG	-3.04 ± 0.25	-2.67 ± 0.24
ACUAAGCAAUAUUACGUUUA	-3.27 ± 0.17	-2.48 ± 0.14
UUAAAGCAAUAUUACGCGAA	-0.169 ± 0.15	0.0649 ± 0.18
GCAAAGCAAUAUUACGCAAC	-3.02 ± 0.15	-1.23 ± 0.12
CCGUAGCAAUAUUACGGUCC	-4.14 ± 0.3	-2.93 ± 0.28
GCUGAGCAAUAUUACGUCCC	-0.877 ± 0.092	-0.184 ± 0.11
GAAUAGCAAUAUUACGAUUG	-1.4 ± 0.1	-0.331 ± 0.13
UCGGAGCAAUAUUACGAUUC	-0.553 ± 0.26	-0.938 ± 0.24
UUACAGCAAUAUUACGUCAC	–	-1.8 ± 0.23
GUUAAGCAAUAUUACGAGCA	-1.9 ± 0.12	-0.552 ± 0.11
CCACAGCAAUAUUACGGUAC	-4.19 ± 0.19	-2.55 ± 0.18
UGCGAGCAAUAUUACGAGUU	-3.05 ± 0.14	-1.35 ± 0.13

Sequence	self-splicing fitness (ln) (30 °C)	self-splicing fitness (ln) (37 °C)
CUCGAGCAAUAUUACGCAAG	-3.95 ± 0.43	-1.35 ± 0.3
UUUAAGCAAUAUUACGUGGC	-3.77 ± 0.23	-3.57 ± 0.29
ACCUAGCAAUAUUACGAUUU	-0.879 ± 0.064	-0.0104 ± 0.079
GUGCAGCAAUAUUACGGACG	-2.47 ± 0.1	-0.949 ± 0.11
AUCUAGCAAUAUUACGGCGC	-0.932 ± 0.11	-0.0721 ± 0.14
UCUAAGCAAUAUUACGAACU	-2.55 ± 0.11	-2.26 ± 0.15
AUGGAGCAAUAUUACGCAGA	-2.19 ± 0.32	–
CUGUAGCAAUAUUACGUAGG	-1.03 ± 0.075	-0.77 ± 0.12
GUUUAGCAAUAUUACGGUUG	-3.13 ± 0.36	-1.47 ± 0.28
GGCCAGCAAUAUUACGUAAG	-1.3 ± 0.084	-1.25 ± 0.15
UCAGAGCAAUAUUACGAUAA	–	-2.46 ± 0.41
AACUAGCAAUAUUACGUGAG	-1.28 ± 0.075	-1.03 ± 0.1
UUGAAGCAAUAUUACGCCUG	0.189 ± 0.11	0.0665 ± 0.12
GAAGAGCAAUAUUACGAUGC	-2.13 ± 0.16	-1.9 ± 0.18
UCUGAGCAAUAUUACGGUCA	-2.5 ± 0.29	-1.7 ± 0.29
CAGAAGCAAUAUUACGGUGU	-3.05 ± 0.12	-2.22 ± 0.14
ACCAAGCAAUAUUACGUUUA	-2.41 ± 0.12	-1.82 ± 0.11
UACAAGCAAUAUUACGUAUG	-3.68 ± 0.17	-2.11 ± 0.14
GGAAAGCAAUAUUACGAAUU	-1.96 ± 0.16	-1.4 ± 0.12
UGCCAGCAAUAUUACGUCUA	-0.347 ± 0.081	-0.671 ± 0.089
UAAAAGCAAUAUUACGGAGU	-3.65 ± 0.2	-2.45 ± 0.19
AUACAGCAAUAUUACGGAGC	-3.27 ± 0.28	-2.78 ± 0.26

Source: the supplement of paper PMC7877785
